Source: US20220064291A1, “METHODS OF USING BUTYROPHILIN ANTIBODIES FOR TREATING HIV INFECTION” (Merck Sharp & Dohme Corp., priority 2018, published 2022)

Key:
BTN3A1 = target: T1, BTN3A1 (Homo sapiens, UniProt O00481); assay: BTN isoform binding of yeast display antibodies (Octet isoform binding profile, binding affinity); conditions: Table 4; Yes/No; hIgG1-297A isotype
T1 construct: Fc (Fc-chimera); purchased R&D systems; host or cells: HEK293
Method: (§1) De novo antibody discovery for butyrophilin isoforms was executed on pre-immune yeast display libraries. The soluble proteins used in the yeast display selections were biotinylated recombinant proteins of HEK293-expressed Fc-chimeras BTN2A2, BTN3A1, BTN3A2, and BTN3A3 from R&D systems. All proteins were analyzed before use by Biacore binding against control antibody anti-BTN Monoclonal Antibody (eBioBT3.1 (20.1, BT3.1), SEC, SDS-PAGE, and endotoxin.
(§2) Each biotinylated BTN isoform was subjected to pre-immune yeast display libraries for selections. The selections started with MACS (Magnetic Bead-based Cell Separation) cell separations for the first two rounds to enrich clones that bind to the targeted BTN isoforms, and applied fluorescence activated cell sorting (FACS) at later rounds to isolate clones that were with high affinity and isoform specificity. Due to the high sequence homology among all BTN isoforms, isoform-specific selection pressures were achieved by introducing ten-fold molar ratio of the non-biotinylated BTN isoforms to the biotinylated and selection-targeted BTN isoforms in the later rounds of the selections.
(§3) The isolated clones were then sequenced to identify the unique antibodies and screened for isoform binding profiles by Octet. To ensure the isolated antibodies have broad-epitopic coverage, all the antibodies were subjected to binning against the benchmark antibodies: BTN20.1 (Biolegend, agonist) and BTN103.2 (Creative Biolabs, antagonist). Purified antibodies were submitted for functional assay screening, as described below.
(§4) Given the sequence homology between BTN3A isoforms (>90%), this outcome is expected. Within all 105 antibodies from the BTN3A1 campaign and 125 antibodies from the BTN3A2 campaign, each antibody was characterized into one of the bins: Biolegend-bin, Creative-Biolabs-bin, Empty Set, or Overlapping.
(§5) Using the protocols described in detail in Example 2B and Example 3A, anti-BTN3A antibodies were screened for a functional role in T cell activation and reactivation of latent HIV. Antibody screens were conducted using HIV latent CD4+ T cells (prepared as described in Example 1A). T cell activation was quantified by production of IFNγ, and reactivation of latent HIV was quantified by luciferase assay. […] Detailed information on binding profile with binding affinity (KD) (Table 4) and antibody isotype and sequence (Table 5) are provided for two representative antibodies from each of the three functional categories observed.

BTN3A2 = target: T2, BTN3A2 (Homo sapiens, UniProt P78410); assay: as above; conditions: Table 4; Yes/No; hIgG1-297A isotype
T2 construct: Fc (Fc-chimera); purchased R&D systems; host or cells: HEK293
Method: as §1, §2, §3, §4, §5

BTN3A3 = target: T3, BTN3A3 (Homo sapiens, UniProt O00478); assay: as above; conditions: Table 4; Yes/No; hIgG1-297A isotype
T3 construct: Fc (Fc-chimera); purchased R&D systems; host or cells: HEK293
Method: as §1, §2, §3, §4, §5

[1] = tested on: HIV latent primary CD4+ T cells; assay: T cell activation by plate-coated anti-BTN3A antibody plus anti-CD3, IFNγ expression (V-PLEX); format: cell-based, human; conditions: production of IFNγ, with anti-CD3, Yes/No
Method: (§6) Latent HIV-1 infected primary CD4+ T cells were generated following a protocol licensed from the laboratory of Jonathan Karn (Case Western Reserve University, Cleveland, Ohio). Briefly, naive CD4^+ T cells isolated from 2 healthy human donors were propagated for 6 days in growth medium supplemented with Dynabeads Human T-Activator CD3/CD28 (25 μl/10^6 cells) and Th17 polarizing cytokines: TGF-β1 (5 ng/ml), IL-4 (10 ng/ml), IFNγ (10 ng/ml), IL-1β (10 ng/ml), IL-6 (30 ng/ml), IL-23 (50 ng/ml), IL-8 (15 ng/ml), IL-10 (10 ng/ml). […]. Reactivation of HIV-1 proviruses from latently infected cells was performed by treatment with Dynabeads Human T-Activator CD3/CD28 (25 μl/10^6 cells) or PMA/Ionomycin.
We next addressed if treatment with anti-BTN3A antibodies reverses BTN3A-mediated blockade in T cell activation. To assess this, sterile 96-well flat bottom tissue culture plates (Corning) were coated with various concentrations of anti-CD3 and anti-BTN3 20.1 antibodies (10 μg/ml, 3 μg/ml, 1 μg/ml, and 0.3 μg/ml) in PBS for 16 h in a 4° C. refrigerator. As controls, plates were coated with various concentrations of anti-CD3 antibody and isotype control antibody (10 μg/ml, 3 μg/ml, 1 μg/ml, and 0.3 μg/ml), anti-CD3 antibody alone, or isotype control antibody alone. The next day, antibodies were aspirated using a multichannel pipette and HIV latent primary CD4+ T cells from two donors were added to the antibody coated plates in duplicates at 125,000 cells/well in 200 ul of primary cell media (RPMI with 10% FBS, 50 μg/ml Primocin™). At 72 h following treatment T cell activation was measured based on IFNγ expression using a V-PLEX proinflammatory panel 1 human assay (Meso Scale Discovery, Rockville, Md.) (FIG. 4).
as §5

[2] = tested on: latent HIV in HIV latent primary CD4+ T cells; assay: Latent virus reactivation by plate-coated anti-BTN3A antibody plus anti-CD3, Nano-Glo Luciferase Assay; format: cell-based, HIV-1; conditions: with anti-CD3, Yes/No
Method: as §6
To assess if BTN3A modulation has impact on HIV latency reversal, sterile 96-well flat bottom tissue culture plates (Corning) were coated with various concentrations of anti-CD3 and anti-BTN3 20.1 antibodies (10 μg/ml, 3 μg/ml, 1 μg/ml, and 0.3 μg/ml) in PBS for 16h in a 4° C. refrigerator. As controls, plates were coated with various concentrations of anti-CD3 antibody and isotype control antibody (10 μg/ml, 3 μg/ml, 1 μg/ml, and 0.3 μg/ml), anti-CD3 antibody alone, or isotype control antibody alone. The next day, antibodies were aspirated using a multichannel pipette and HIV latent primary CD4+ T cells from two donors were added to the antibody coated plates in duplicates at 125,000 cells/well in 200 ul of primary cell media (RPMI with 10% FBS, 50 μg/ml Primocin™). At 24 h post treatment latent virus reactivation was measured using a Nano-Glo® Luciferase Assay (Promega) (FIG. 5).
as §5

T1 sequence (O00481 with tags, fused parts or gaps limits assumed): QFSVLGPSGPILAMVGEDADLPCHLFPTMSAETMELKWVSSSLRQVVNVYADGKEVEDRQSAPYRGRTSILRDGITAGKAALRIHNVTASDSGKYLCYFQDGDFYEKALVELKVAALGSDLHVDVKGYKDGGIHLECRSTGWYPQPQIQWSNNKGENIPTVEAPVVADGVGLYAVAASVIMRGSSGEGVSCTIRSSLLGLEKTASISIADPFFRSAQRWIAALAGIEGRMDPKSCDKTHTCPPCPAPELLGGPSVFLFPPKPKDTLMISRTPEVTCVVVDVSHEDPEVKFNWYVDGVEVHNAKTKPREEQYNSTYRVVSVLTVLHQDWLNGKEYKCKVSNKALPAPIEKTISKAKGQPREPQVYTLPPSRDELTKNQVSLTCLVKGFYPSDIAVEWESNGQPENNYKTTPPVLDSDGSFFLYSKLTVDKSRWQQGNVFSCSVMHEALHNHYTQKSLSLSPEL
T3 sequence (O00478 with tags, fused parts or gaps limits assumed): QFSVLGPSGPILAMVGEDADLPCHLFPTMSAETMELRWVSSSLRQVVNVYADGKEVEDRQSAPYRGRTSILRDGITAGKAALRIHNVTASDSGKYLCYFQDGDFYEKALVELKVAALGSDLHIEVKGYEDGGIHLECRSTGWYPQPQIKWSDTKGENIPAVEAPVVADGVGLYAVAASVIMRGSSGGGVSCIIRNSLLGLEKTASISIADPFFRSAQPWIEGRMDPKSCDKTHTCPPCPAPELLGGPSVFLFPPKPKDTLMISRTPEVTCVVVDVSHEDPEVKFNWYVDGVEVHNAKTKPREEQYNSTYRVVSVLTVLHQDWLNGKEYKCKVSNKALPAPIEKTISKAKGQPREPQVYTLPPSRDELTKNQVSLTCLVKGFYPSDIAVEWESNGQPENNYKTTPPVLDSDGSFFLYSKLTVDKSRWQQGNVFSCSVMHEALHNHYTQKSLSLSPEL
T2 sequence (P78410 with tags, fused parts or gaps limits assumed): as the sequence (O00478 with tags, fused parts or gaps limits assumed) above, with R37K, D120N, I123V, K149Q, D152N, T153A, A174E, S184G, G187E counted along it

Row | Molecule | BTN3A1 Binding (BTN3A1) | BTN3A2 Binding (BTN3A2) | BTN3A3 Binding (BTN3A3) | Antibody function T cell activation [1] | Antibody function HIV reactivation [2]
1 | 1G (antibody, V domains shown) VH: QVQLVQSGAEVKKPGASVKVSCKASGYTFTSYGISWVRQAPGQGLEWMGWISAYNGNTNYAQKLQGRVTMTTDTSTSTAYMELRSLRSDDTAVYYCARLGATVAYFDLWGRGTLVTVSS VL: EIVLTQSPATLSVSPGERATLSCRASQSVSSNLAWYQQKPGQAPRLLIYGASTRATGIPARFSGSGSGTEFTLTISSLQSEDFAVYYCQQDVYWPFTFGGGTKVEIK | Yes | Yes | Yes | Yes | No
2 | 2A (antibody, V domains shown) VH: QVQLVQSGAEVKKPGASVKVSCKASGYTFTSYYIHWVRQAPGQGLEWMGIINPSGGSTSYAQKFQGRVTMTRDTSTSTVYMELSSLRSEDTAVYYCARATWEALHYWGQGTLVTVSS VL: EIVMTQSPATLSVSPGERATLSCRASQSVGSNLAWYQQKPGQAPRLLIYGASTRATGIPARFSGSGSGTEFTLTISSLQSEDFAVYYCQQYYAWPRTFGGGTKVEIK | Yes | No | Yes | No | Yes
3 | 3B (antibody, V domains shown) VH: QVQLVQSGAEVKKPGASVKVSCKASGYTFTSYYMHWVRQAPGQGLEWMGIINPSGGSTSYAQKFQGRVTMTRDTSTSTVYMELSSLRSEDTAVYYCARPSGDYSGYDALDVWGQGTMVTVSS VL: EIVLTQSPATLSLSPGERATLSCRASQSVSSYLAWYQQKPGQAPRLLIYDASNRATGIPARFSGSGSGTDFTLTISSLEPEDFAVYYCQQDPYWPITFGGGTKVEIK | Yes | Yes | Yes | Yes | Yes
4 | 3A (antibody, V domains shown) VH: QVQLVQSGAEVKKPGASVKVSCKASGYTFTSYYMHWVRQAPGQGLEWMGIINPGGGSTSYAQKFQGRVTMTRDTSTSTVYMELSSLRSEDTAVYYCARDAGHDYGDMAYWGQGTLVTVSS VL: DIQMTQSPSTLSASVGDRVTITCRASQSISSWLAWYQQKPGKAPKLLIYKASSLESGVPSRFSGSGSGTEFTLTISSLQPDDFATYYCQQYRSFPTFGGGTKVEIK | Yes | No | Yes | Yes | Yes
